One molecule from US20250034261A1 (TAIZHOU ENZE MEDICAL CENTER GROUP, published 2025) can be followed below.

The target in one test is T1, HLA-G3 standard protein (human, UniProt P17693-3 25-154).
T1 construct: Standard protein used in immunoblotting
Put plainly: immunoblot of HLA-G isoform standard proteins. For orientation: Immunoblotting shows a protein as a band on a membrane.

A further test concerns the target T2, HLA-G4 standard protein (human, UniProt P17693-4 25-246).
T2 construct: Standard protein used in immunoblotting
Put plainly: immunoblot of HLA-G isoform standard proteins.

For a further test, the target named is T3, HLA-G7 standard protein (human, UniProt P17693-7 25-116).
T3 construct: Standard protein used in immunoblotting
Put plainly: immunoblot of HLA-G isoform standard proteins.

Test [1] concerns the target T4, antigenic peptide located at positions 209-226 in the heavy chain α3 domain of the HLA-G molecules … (human).
T4 construct: Synthetic peptide, coated on the ELISA plate at 2 ug/ml; also called immunogen
T4 peptide: KTHVTHHPVFDYEATLRC
The test can be described thus: indirect ELISA, peptide coated at 2 ug/ml; antibody stock 2.8 mg/mL. Background: ELISA stands for enzyme-linked immunosorbent assay.
Protocol: (§1) The antigen (SEQ No. 19 [sequence]) was diluted with the coating buffer, with the final concentration of 2 ug/ml, 100 ul/well, and placed at 4° C. overnight; washed with the wash buffer twice, blocked with the blocking buffer at 200 ul/well, incubated at 37° C. for 2 hours; then washed once with the wash buffer. The purified antibody was diluted by 2-fold starting from 200-fold (PBS), and the blank control (blank) was PBS, 100 ul/well, and incubated at 37° C. for 1 hour; and then washed 3 times with the wash buffer. The secondary antibody diluted with PBS by 20,000-fold was added, 100 ul/well, and incubated in a 37° C. incubator for 1 hour; taken out and washed 3 times with a wash buffer. Then the color development was performed with a developing solution of 100 ul/well for 5-15 minutes. Then 50 ul of stop solution was added to each well to stop. The absorbance value was measured at dual wavelengths (450, 630), and a chart was drawn for analysis.

Test [2] concerns the target T4, antigenic peptide located at positions …. The test can be described thus: indirect ELISA, peptide coated at 2 ug/ml, antibody in 2-fold dilutions from 200-fold; logistic fit, 150000×A/antibody concentration.
Protocol: as §1

Protocol for HLA-G3 standard protein: (§2) After electroporating the standard proteins of HLA-G isoforms (HLA-G1, HLA-G2, HLA-G3, HLA-G4, HLA-G5, HLA-G6 and HLA-G7), 5% skimmed milk powder was used to block at room temperature for 4 hours, and washed with 0.2% TBS (Tewen-20 PBS).
Protocol for HLA-G4 standard protein: as §2
Protocol for HLA-G7 standard protein: as §2

B1: monoclonal antibody (YWHG-3) against HLA-G1, -G2, -G5 and HLA-G6 isoforms (antibody, IgG1, V domains shown)
VH: LVQLQQSGGGLVKPGGSLKLSCAASGFTFSDYNMYWVRQTPEKRLEWVATISDGGRSTFYLDSVKGRFTISRDNAKNNLYLQINNLKSEDTAIYYCVRDDYWGQGTTLTVSS
VL: DIMMTQTPLSLPVSLGDQASISCRSSQSLVHSTGNTFLNWYLQKPGQSPKLLIYKVSNRFSGVSDRFSGSGSGTDFTLKIRRVEAEDLGVYFCSQSTHVPWTFGGGTKLEIK
notes: Used biotin-labelled in the HLA-G5 ELISA and FITC-labelled in flow cytometry; also called hybridoma CCTCC NO: 202121
For the molecule B1, the binding result with HLA-G3 standard protein, in the test with HLA-G4 standard protein and with HLA-G7 standard protein was “no binding (tested: 1.0 ug/ml)” each time. In test [1], the “antibody dilution factor corresponding to 1/2 OD value” is 205000 fold dilution. In addition, the Ka in test [2] was 1.1e+10 M⁻¹.
